Test results from PMC12316266, “Biochemical analysis of human eIF4E-DCP2 interaction: Implications for the relationship between translation initiation and decapping”.

What was measured:
Dcp2 [1] = target: T1, Dcp2 (Homo sapiens, UniProt Q8IU60 1-420); assay: MST; no Mg2+; Hill coefficient 1.56 ± 0.49; MST: 100 mM NaCl, 50 mM Tris-Cl pH 7.9, 1 mM DTT, 100 ug/ml BSA, 37 C (10 mM MgCl2 only when stated), 4 nM RNA; EMSA: same buffer plus 5% glycerol, no Mg2+, 24; conditions: protein: recombinant; tags: His6-protein G-TEV tag, removed by TEV; label: 3' Cy5; single strand
Dcp2 [2] = target: T1, Dcp2; assay: MST; no Mg2+; RNA pre-incubated with 80 nM eIF4E; Hill coefficient 1.99 ± 0.83; MST: 100 mM NaCl, 50 mM Tris-Cl pH 7.9, 1 mM DTT, 100 ug/ml BSA, 37 C (10 mM MgCl2 only when stated), 4 nM RNA; EMSA: same buffer plus 5% glycerol, no Mg2+, 24; conditions: protein: recombinant; tags: His6-protein G-TEV tag, removed by TEV; label: 3' Cy5; single strand
eIF4E [3] = target: T2, eIF4E (Homo sapiens, UniProt P06730 1-217); assay: EMSA; 10 mM MgOAc; 2.5 uM eIF4E; Cy5 label implied; MST: 100 mM NaCl, 50 mM Tris-Cl pH 7.9, 1 mM DTT, 100 ug/ml BSA, 37 C (10 mM MgCl2 only when stated), 4 nM RNA; EMSA: same buffer plus 5% glycerol, no Mg2+, 24; conditions: protein: recombinant; tags: His6-protein G-TEV tag, removed by TEV; label: 3' Cy5; single strand
T2 sequence (P06730 whole entry): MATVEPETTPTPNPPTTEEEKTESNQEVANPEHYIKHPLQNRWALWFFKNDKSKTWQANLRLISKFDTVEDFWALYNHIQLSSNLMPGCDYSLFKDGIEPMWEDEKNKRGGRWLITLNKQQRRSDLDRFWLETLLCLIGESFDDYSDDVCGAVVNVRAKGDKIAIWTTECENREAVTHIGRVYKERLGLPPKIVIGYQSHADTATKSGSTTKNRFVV

Dcp2 E147Q,E148Q = Dcp2 E147Q,E148Q (Homo sapiens, UniProt Q8IU60 1-420, E147Q;E148Q); assay: MST; no Mg2+ (implied); MST: 100 mM NaCl, 50 mM Tris-Cl pH 7.9, 1 mM DTT, 100 ug/ml BSA, 37 C (10 mM MgCl2 only when stated), 4 nM RNA; EMSA: same buffer plus 5% glycerol, no Mg2+, 24; conditions: protein: recombinant; tags: His6-protein G-TEV tag, removed by TEV; label: 3' Cy5; single strand
eIF4E [4] = target: T2, eIF4E; assay: EMSA; no Mg2+; 625 nM eIF4E; MST: 100 mM NaCl, 50 mM Tris-Cl pH 7.9, 1 mM DTT, 100 ug/ml BSA, 37 C (10 mM MgCl2 only when stated), 4 nM RNA; EMSA: same buffer plus 5% glycerol, no Mg2+, 24; conditions: protein: recombinant; tags: His6-protein G-TEV tag, removed by TEV; single strand
Dcp2 [5] = target: T1, Dcp2; assay: MST; no Mg2+; Hill coefficient 1.22 ± 0.39; MST: 100 mM NaCl, 50 mM Tris-Cl pH 7.9, 1 mM DTT, 100 ug/ml BSA, 37 C (10 mM MgCl2 only when stated), 4 nM RNA; EMSA: same buffer plus 5% glycerol, no Mg2+, 24; conditions: protein: recombinant; tags: His6-protein G-TEV tag, removed by TEV; label: 3' Cy5; single strand
eIF4E [6] = target: T2, eIF4E; assay: EMSA; 10 mM MgOAc; 2.5 uM eIF4E; MST: 100 mM NaCl, 50 mM Tris-Cl pH 7.9, 1 mM DTT, 100 ug/ml BSA, 37 C (10 mM MgCl2 only when stated), 4 nM RNA; EMSA: same buffer plus 5% glycerol, no Mg2+, 24; conditions: protein: recombinant; tags: His6-protein G-TEV tag, removed by TEV; label: 3' Cy5 (implied); single strand
Dcp2 [7] = target: T1, Dcp2; assay: MST; no Mg2+; Hill coefficient 1.89 ± 0.78; MST: 100 mM NaCl, 50 mM Tris-Cl pH 7.9, 1 mM DTT, 100 ug/ml BSA, 37 C (10 mM MgCl2 only when stated), 4 nM RNA; EMSA: same buffer plus 5% glycerol, no Mg2+, 24; conditions: protein: recombinant; tags: His6-protein G-TEV tag, removed by TEV; label: 3' Cy5; single strand

AGGAAAUAAGAGAGAAAAGAAGAGUAAGAAGAAAUAUAAGAGC (ssRNA, 5' m7GpppAm cap (2'-O-methyl on first A)) [m7G-capped 43-mer RNA, 3' Cy5]
apparent K (half saturation) (Dcp2 [1]): 157 ± 26 nM | apparent K (half saturation) (Dcp2 [2]): 72 ± 20 nM | binding result (eIF4E [3]): binds | binding result (Dcp2 E147Q,E148Q): no binding

AGGAAAUAAGAGAGAAAAGAAGAGUAAGAAGAAAUAUAAGAGC (ssRNA, 5' m7GpppAm cap (2'-O-methyl on first A)) [m7G-capped 43-mer RNA, 3' unlabeled]
binding result (eIF4E [4]): binds

AGGAAAUAAGAGAGAAAAGAAGAGUAAGAAGAAAUAUAAGAGC (ssRNA, 5' triphosphate) [5' triphosphate 43-mer RNA]
apparent K (half saturation) (Dcp2 [5]): 151 ± 29 nM | binding result (eIF4E [3]): no binding

AGGAAAUAAGAGAGAAAAGAAGAGUAAGAAGAAAUAUAAGAGC (ssRNA, 5' ApppAm cap (2'-O-methyl on first A)) [A-capped 43-mer RNA]
binding result (eIF4E [6]): no binding

AGGAAAUAAGAGAGAAAAGAAGAGUAAGAAGAAAUAUAAGAGC (ssRNA, 5' monophosphate) [5' monophosphate 43-mer RNA]
apparent K (half saturation) (Dcp2 [7]): 96 ± 16 nM
